The experiment deals with Notch-1 (NICD). The experiment in a line: NICD nuclear translocation in RIN cells (indirect immunofluorescence, immunoblot of nuclear extracts). The format is cell-based, rat. Particulars: RIN cells treated with secretagogues. As for the experimental part: Islet isolation, cell culture and treatments. Adult rat (Sprague-Dawley) and mouse (C57/BL6) islets were isolated by collagenase P digestion and cultured overnight in M199 medium (5 mM glucose). RIN 1046-38 β-cells were cultured as outlined previously (Wang, et al., Endocrinology, 142:1820-1827 (2001)). Isolated human islets came from David Harlan, Transplant Section, NIDDK. Ex-4, GLP-1, CCK (all used at concentrations previously shown to cause maximum insulin release), Ex and the γ-secretase inhibitor, L-685,458, were obtained from Bachem. H89 was from Calbiochem, insulin was from Sigma. The Jagged peptides, R-JAG […] (SEQ ID NO:1), JAG-1 […] (SEQ ID NO:2), and scrambled control peptide without agonist activity, sc-Jagged […] (Nickoloff, et al., Cell Death Differ, 9842-855 (2002)) (SEQ ID NO:3), were synthesised by New England Peptide Inc. […]
RIN cells were permeabilized in Triton-X (0.1%) on ice and blocked for 1 h at room temperature in 3% BSA and 0.1% Tween in PBS. They were incubated overnight at 4° C. with the primary antibody, washed in PBS and incubated with fluorescent labelled secondary antibody for 1 h, washed and mounted with fluorescence mounting medium (Vector Laboratories). […] AlexaFluor antibodies (Molecular Probes; Eugene, Oreg.) were excited with the 488-nm line of a krypton-argon laser and recorded at the presence of emission filter BP515-565 nm. […]

B1: Cholecystokinin (peptide, UniProt P06307 21-115, looked up)
Cholecystokinin: QPVPPADPAGSGLQRAEEAPRRQLRVSQRTDGESRAHLGALLARYIQQARKAPSGRMSIVKNLQNLDPSHRISDRDYMGWMDFGRRSAEEYEYPS
modifications: Cholecystokinin
notes: increases insulin secretion in a non-cAMP dependent manner
B1: the “nuclear NICD / NICD translocation” value is given as “did not increase NICD translocation above that seen with glucose alone”.

The values above are taken from patent publication US7888116B2, “Uses of notch receptors, notch ligands, and notch modulators in methods related to metabolic diseases” (The United States of America as represented by the …, priority 2005, dated 2011).
